# Test results reported in publication PMC7794784, “A Very Bright Far-Red Bioluminescence Emitting Combination Based on Engineered Railroad Worm Luciferase and 6′-Amino-Analogs for Bioimaging Purposes” (International Journal of Molecular Sciences, 2020).
# Tests used:
# [1] = substrate: O=C(O)[C@H]1CSC(c2nc3ccc(O)cc3s2)=N1; experiment: bioluminescence peak intensity (I0), Lineweaver-Burk; assay type: biochemical, Phrixothrix hirtus; conditions: 2 mM ATP, 4 mM MgSO4, 0.10 M Tris-HCl pH 8.0, 22 °C, kcat in relative luminometer counts
# From the text: (§1) bioluminescence peak intensity (I0), Lineweaver-Burk on PxRE luciferase (P. hirtus red-emitting luciferase, RE WT)
# [2] = substrate: O=C(O)[C@H]1CSC(c2nc3ccc(N4CCCC4)cc3s2)=N1; experiment: as above; assay type: biochemical, Phrixothrix hirtus; conditions: 2 mM ATP, 4 mM MgSO4, 0.10 M Tris-HCl pH 8.0, 22 °C, kcat in relative luminometer counts
# From the text: as §1
# purified protein = substrate: Nc1ncnc2c1ncn2[C@@H]1O[C@H](COP(=O)(O)OP(=O)(O)OP(=O)(O)O)[C@@H](O)[C@H]1O; experiment: purified protein; conditions: co-substrate D-luciferin, 4 mM MgSO4, 0.10 M Tris-HCl pH 8.0, 22 °C
Protein,Km [1],Km [2],Km (purified protein)
"PxRE luciferase (P. hirtus red-emitting luciferase, RE WT) (Phrixothrix hirtus) (protein) MEEENIVNGDRPRDLVFPGTAGLQLYQSLYKYSYITDGIIDAHTNEVISYAQIFETSCRLAVSLEKYGLDHNNVVAICSENNIHFFGPLIAALYQGIPMATSNDMYTEREMIGHLNISKPCLMFCSKKSLPFILKVQKHLDFLKKVIVIDSMYDINGVECVFSFVSRYTDHAFDPVKFNPKEFDPLERTALIMTSSGTTGLPKGVVISHRSITIRFVHSSDPIYGTRIAPDTSILAIAPFHHAFGLFTALAYFPVGLKIVMVKKFEGEFFLKTIQNYKIASIVVPPPIMVYLAKSPLVDEYNLSSLTEIACGGSPLGRDIADKVAKRLKVHGILQGYGLTETCSALILSPNDRELKKGAIGTPMPYVQVKVIDINTGKALGPREKGEICFKSQMLMKGYHNNPQATRDALDKDGWLHTGDLGYYDEDRFIYVVDRLKELIKYKGYQVAPAELENLLLQHPNISDAGVIGIPDEFAGQLPSACVVLEPGKTMTEKEVQDYIAELVTTTKHLRGGVVFIDSIPKGPTGKLMRNELRAIFAREQAKSKL",7 µM,0.5 µM,230 µM
"PxRE luciferase (P. hirtus red-emitting luciferase, RE WT) (Phrixothrix hirtus; R215K) (protein) MEEENIVNGDRPRDLVFPGTAGLQLYQSLYKYSYITDGIIDAHTNEVISYAQIFETSCRLAVSLEKYGLDHNNVVAICSENNIHFFGPLIAALYQGIPMATSNDMYTEREMIGHLNISKPCLMFCSKKSLPFILKVQKHLDFLKKVIVIDSMYDINGVECVFSFVSRYTDHAFDPVKFNPKEFDPLERTALIMTSSGTTGLPKGVVISHRSITIKFVHSSDPIYGTRIAPDTSILAIAPFHHAFGLFTALAYFPVGLKIVMVKKFEGEFFLKTIQNYKIASIVVPPPIMVYLAKSPLVDEYNLSSLTEIACGGSPLGRDIADKVAKRLKVHGILQGYGLTETCSALILSPNDRELKKGAIGTPMPYVQVKVIDINTGKALGPREKGEICFKSQMLMKGYHNNPQATRDALDKDGWLHTGDLGYYDEDRFIYVVDRLKELIKYKGYQVAPAELENLLLQHPNISDAGVIGIPDEFAGQLPSACVVLEPGKTMTEKEVQDYIAELVTTTKHLRGGVVFIDSIPKGPTGKLMRNELRAIFAREQAKSKL",40 µM,1.0 µM,50 µM
